Tests used:
human recombinant IL-8 [1] = biological target: T1, human recombinant IL-8 (human, UniProt P10145 28-99); assay: BIAcore SPR, IL-8 immobilized (81 RU surface), hybridoma supernatant as analyte
T1 construct: also called hIL8; h-IL-8
T1 sequence (looked up): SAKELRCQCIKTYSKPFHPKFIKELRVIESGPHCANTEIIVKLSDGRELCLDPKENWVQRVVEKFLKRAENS

human recombinant IL-8 [2] = biological target: T1, human recombinant IL-8; assay: BIAcore SPR, IL-8 immobilized (134 RU surface), hybridoma supernatant as analyte

Kd (human recombinant IL-8 [1]): 0.142 nM
koff (human recombinant IL-8 [1]): 0.000817 s⁻¹
kon (human recombinant IL-8 [1]): 5.76e+06 M⁻¹ s⁻¹
Kd (human recombinant IL-8 [2]): 0.196 nM
koff (human recombinant IL-8 [2]): 0.000384 s⁻¹
kon (human recombinant IL-8 [2]): 1.95e+06 M⁻¹ s⁻¹
B1: I8K4.2 (antibody, V domains shown)
VH: SLTCAVYGGSFSGYYWTWIRQPPGKGLEWIGEIIHHGNTNYNPSLKSRVSISVDTSKNQFSLTLSSVTAADTAVYYCARGGAVAAFDYWGQGTLVTVSS
VL: TQSPSSLSASVGDRVTITCQASQDISNYLNWYQQKAGKAPKVLIYAASNLEAGVPSRFSGSGSGTDFTFTISSLQPEDIATYYCQHYDNLLTFGGGTKVEIKR
